Laboratory results reported in patent US20190225650A1, “PEPTIDOMIMETIC MACROCYCLES AND USE THEREOF IN REGULATING HIF1ALPHA” (AILERON THERAPEUTICS, INC., priority 2013, published 2019).
Bridge positions count the residues as written; N and C are the ends. Square brackets hold non-standard residues; d marks the D form. S5 = C=CCCC[C@](C)(N)C(=O)O; Nle = CCCC[C@H](N)C(=O)O

B1: SP-44 (peptide)
peptide: Ac-SIDEEVL[Nle][S5]LVI[S5][Nle]ALDRI-NH2
modifications: staple 9-13
SMILES: CCCC[C@H](NC(=O)[C@H](CC(C)C)NC(=O)[C@@H](NC(=O)[C@H](CCC(=O)O)NC(=O)[C@H](CCC(=O)O)NC(=O)[C@H](CC(=O)O)NC(=O)[C@@H](NC(=O)[C@H](CO)NC(C)=O)[C@@H](C)CC)C(C)C)C(=O)N[C@@]1(C)CCCC=CCCC[C@@](C)(C(=O)N[C@@H](CCCC)C(=O)N[C@@H](C)C(=O)N[C@@H](CC(C)C)C(=O)N[C@@H](CC(=O)O)C(=O)N[C@@H](CCCNC(=N)N)C(=O)N[C@H](C(N)=O)[C@@H](C)CC)NC(=O)[C@H]([C@@H](C)CC)NC(=O)[C@H](C(C)C)NC(=O)[C@H](CC(C)C)NC1=O
B2: SP-45 (peptide)
peptide: Ac-FSDEEVL[Nle][S5]LVI[S5][Nle]ALDRI-NH2
modifications: staple 9-13
SMILES: CCCC[C@H](NC(=O)[C@H](CC(C)C)NC(=O)[C@@H](NC(=O)[C@H](CCC(=O)O)NC(=O)[C@H](CCC(=O)O)NC(=O)[C@H](CC(=O)O)NC(=O)[C@H](CO)NC(=O)[C@H](Cc1ccccc1)NC(C)=O)C(C)C)C(=O)N[C@@]1(C)CCCC=CCCC[C@@](C)(C(=O)N[C@@H](CCCC)C(=O)N[C@@H](C)C(=O)N[C@@H](CC(C)C)C(=O)N[C@@H](CC(=O)O)C(=O)N[C@@H](CCCNC(=N)N)C(=O)N[C@H](C(N)=O)[C@@H](C)CC)NC(=O)[C@H]([C@@H](C)CC)NC(=O)[C@H](C(C)C)NC(=O)[C@H](CC(C)C)NC1=O
B3: SP-48 (peptide)
peptide: Ac-FIDEESL[Nle][S5]LVI[S5][Nle]ALDRI-NH2
modifications: staple 9-13
SMILES: CCCC[C@H](NC(=O)[C@H](CC(C)C)NC(=O)[C@H](CO)NC(=O)[C@H](CCC(=O)O)NC(=O)[C@H](CCC(=O)O)NC(=O)[C@H](CC(=O)O)NC(=O)[C@@H](NC(=O)[C@H](Cc1ccccc1)NC(C)=O)[C@@H](C)CC)C(=O)N[C@@]1(C)CCCC=CCCC[C@@](C)(C(=O)N[C@@H](CCCC)C(=O)N[C@@H](C)C(=O)N[C@@H](CC(C)C)C(=O)N[C@@H](CC(=O)O)C(=O)N[C@@H](CCCNC(=N)N)C(=O)N[C@H](C(N)=O)[C@@H](C)CC)NC(=O)[C@H]([C@@H](C)CC)NC(=O)[C@H](C(C)C)NC(=O)[C@H](CC(C)C)NC1=O
B4: SP-49 (peptide)
peptide: Ac-FIDEEVS[Nle][S5]LVI[S5][Nle]ALDRI-NH2
modifications: staple 9-13
SMILES: CCCC[C@H](NC(=O)[C@H](CO)NC(=O)[C@@H](NC(=O)[C@H](CCC(=O)O)NC(=O)[C@H](CCC(=O)O)NC(=O)[C@H](CC(=O)O)NC(=O)[C@@H](NC(=O)[C@H](Cc1ccccc1)NC(C)=O)[C@@H](C)CC)C(C)C)C(=O)N[C@@]1(C)CCCC=CCCC[C@@](C)(C(=O)N[C@@H](CCCC)C(=O)N[C@@H](C)C(=O)N[C@@H](CC(C)C)C(=O)N[C@@H](CC(=O)O)C(=O)N[C@@H](CCCNC(=N)N)C(=O)N[C@H](C(N)=O)[C@@H](C)CC)NC(=O)[C@H]([C@@H](C)CC)NC(=O)[C@H](C(C)C)NC(=O)[C@H](CC(C)C)NC1=O
B5: SP-52 (peptide)
peptide: Ac-FIDEEVL[Nle][S5]LSI[S5][Nle]ALDRI-NH2
modifications: staple 9-13
SMILES: CCCC[C@H](NC(=O)[C@H](CC(C)C)NC(=O)[C@@H](NC(=O)[C@H](CCC(=O)O)NC(=O)[C@H](CCC(=O)O)NC(=O)[C@H](CC(=O)O)NC(=O)[C@@H](NC(=O)[C@H](Cc1ccccc1)NC(C)=O)[C@@H](C)CC)C(C)C)C(=O)N[C@@]1(C)CCCC=CCCC[C@@](C)(C(=O)N[C@@H](CCCC)C(=O)N[C@@H](C)C(=O)N[C@@H](CC(C)C)C(=O)N[C@@H](CC(=O)O)C(=O)N[C@@H](CCCNC(=N)N)C(=O)N[C@H](C(N)=O)[C@@H](C)CC)NC(=O)[C@H]([C@@H](C)CC)NC(=O)[C@H](CO)NC(=O)[C@H](CC(C)C)NC1=O

Molecular target: T1, His6-tagged p300 (AA 323-423) (UniProt Q09472 323-423)
T1 construct: range 323-423; also called p300-CH; not shown: His6 tag
Assay: TR-FRET HIF1a/p300 displacement; grade = IC50 >700 nM
How it was run: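 Competitor peptides were added to the HIF1α CTAD/p300 complex (300 nM final) in 150 mM NaCl, 20 mM HEPES pH 7.4, 7.5 mM CHAPS and 1 mM DTT for 1 h at room temperature. Anti-Flag-K (0.5 μM) and anti-6×His-D2 (4 nM) then followed for 2 h. IC50 came from a one-site logIC50 fit of the donor/acceptor ratio.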

T1 sequence (Q09472 323-423 limits assumed): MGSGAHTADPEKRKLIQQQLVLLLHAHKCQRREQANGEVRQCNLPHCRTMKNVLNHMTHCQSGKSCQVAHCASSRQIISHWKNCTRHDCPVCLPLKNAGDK

IC50, > 700 nM:
B1
B2
B3
B4
B5
